From paper PMC8053102

Molecular target: T1, PcnR (plasmid copy number repressor, ProQ/FinO family) (Escherichia coli IncI2 plasmid pHNSHP45, UniProt Q9F577 1-198)
T1 sequence: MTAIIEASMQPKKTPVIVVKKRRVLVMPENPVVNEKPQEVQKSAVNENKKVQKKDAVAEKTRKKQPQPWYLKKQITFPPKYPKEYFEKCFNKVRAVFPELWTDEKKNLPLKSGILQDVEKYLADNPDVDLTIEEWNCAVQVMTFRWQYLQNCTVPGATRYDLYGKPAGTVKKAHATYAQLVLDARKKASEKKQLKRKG
Experiment: EMSA

CUGAAGUGGAGUUUAAUUCCAUGAGAAGGAAAUAUCAACUCUUACAG (structured_RNA) [first stem-loop (SL) of repR mRNA, 47 nt]: binds.
